In patent US6358897B1, “Alkyl trypsin compositions and methods of use in contact lens cleaning and disinfecting systems” (Alcon Laboratories, Inc., priority 1996, dated 2002):

What was measured:
lysozyme deposits = assay: Cleaning efficacy on lysozyme-deposited contact lenses, fluorescence method; conditions: for Lysozyme, Total: hydrolysate plus ACN/TFA extract; for Lysozyme, ACN/TFA Extract: lens extract after overnight cleaning at room temperature; for % Cleaning Efficacy: overnight soak at room temperature, no rubbing; for Lysozyme, Hydrolysate: soaking solution after overnight cleaning at room temperature
Method: The following example illustrates the cleaning efficacy of a multi-purpose composition (Example 6) of the present invention. The cleaning efficacy was determined using the following protocol. 1. Physiological/Thermal Combination Model Each lens was first soaked in a 5 ml lysozyme solution (native or C14-labeled, 1.0 mg/ml in 0.05M phosphate buffer containing 0.9% sodium chloride, pH 7.4) at 37° C. for 24 hours, then removed to a saline solution (2 ml) and heated at 90° C. for 15 minutes. 2. Cleaning and Assessment of Lysozyme Deposits Each deposited lens was placed in a 5 ml of a test solution and agitated in a rotary shaker at room temperature overnight (usually >12 hours). The compositions tested were: 1) the Example 6 composition (Me-trypsin), 2) 1 drop of Example 3B (except Me-trypsin was replaced by trypsin) in 5 mL of the Example 2B composition and 3) 1 drop of Supraclens® Daily Protein Remover (pancreatin) in 5 mL of the Example 2B composition. After rinsing the lens by dipping three times in three consecutive 40 ml saline solution, the lens was subjected to extraction with 5 ml ACN/TFA solution (acetonitrile/trifluoroacetic acid/water: 500/1/500 v/v) for at least 2 hours. No mechanical rubbing was applied to the cleaning regimen. Both the extract and the soaking solution were then assessed for lysozyme by the protein intrinsic fluorescence method using a fluorescence spectrophotometer (excitation wavelength is 280 nm, emission wavelength is 354 nm), or by a scintillation counter for the C14-lysozyme. The quantification of lysozyme was based on a lysozyme standard curve established using the same vehicle and instrumental setting used for the lens extract and lens soaking solution. The results are show in Tables 9-10.

azocasein [1] = assay: Thermal stability of Me-trypsin and trypsin in a disinfecting solution (Example 5C), azocasein method; type: physicochemical; conditions: Example 5C composition, 50 μg/ml
Method: Azocasein Method The following solutions are used in this assay: 1) Buffer solution: 0.05 M sodium phosphate buffer containing 0.9% sodium chloride, pH 7.6. 2) Substrate solution: 2 mg/ml azocasein in the buffer solution mentioned above. The assay is initiated by mixing 1 ml of an appropriately diluted (such that the enzyme activity is in the range of standard curve) enzyme composition in phosphate buffer with 2 ml of azocasein substrate solution (2 mg/ml). After incubation at 37° C. for 20 minutes, the mixture is removed from the incubator and 1 ml of trichloroacetic acid to (14% w/v) is added to stop the enzyme reaction. The mixture is vortexed well and allowed to stand at room temperature for 20 minutes. After centrifuging at 2500 rpm (with a Beckman GS-6R Centrifuge) for 15 minutes, the supernatant is filtered with a serum sampler. 2 ml of the clear yellow filtrate is then adjusted to a neutral pH with 2 ml of 0.5 N sodium hydroxide and the absorbance of 440 nm wavelength light is measured with a spectrophotometer. The amount of azocasein hydrolyzed is calculated based on a standard curve of known concentrations of azocasein solution developed under identical conditions. An enzyme activity unit (“AZ U”) is defined as that amount of enzyme which hydrolyzes 1 μg of azocasein substrate/minute at 37° C. The following is an example of the stability of Me-trypsin in a disinfecting composition of the present invention as compared to an analogous composition containing trypsin. The enzymes were solubilized in the Example 5C composition. The two compositions were incubated at 35° C. or 40° C. At the appointed time, aliquots were tested for enzyme activity by the azocasein method. Activity levels were compared with initial levels and expressed as percent remaining activity.

azocasein [2] = assay: Stability of Me-trypsin versus other trypsin analogs in a Part I composition (azocasein method); type: physicochemical; conditions: for % Activity Remaining: 45° C., 50% L-sorbose 1% borax, pH 5.79 (acetylated trypsin pH 7.54)
Method: Azocasein Method The following solutions are used in this assay: 1) Buffer solution: 0.05 M sodium phosphate buffer containing 0.9% sodium chloride, pH 7.6. 2) Substrate solution: 2 mg/ml azocasein in the buffer solution mentioned above. The assay is initiated by mixing 1 ml of an appropriately diluted (such that the enzyme activity is in the range of standard curve) enzyme composition in phosphate buffer with 2 ml of azocasein substrate solution (2 mg/ml). After incubation at 37° C. for 20 minutes, the mixture is removed from the incubator and 1 ml of trichloroacetic acid to (14% w/v) is added to stop the enzyme reaction. The mixture is vortexed well and allowed to stand at room temperature for 20 minutes. After centrifuging at 2500 rpm (with a Beckman GS-6R Centrifuge) for 15 minutes, the supernatant is filtered with a serum sampler. 2 ml of the clear yellow filtrate is then adjusted to a neutral pH with 2 ml of 0.5 N sodium hydroxide and the absorbance of 440 nm wavelength light is measured with a spectrophotometer. The amount of azocasein hydrolyzed is calculated based on a standard curve of known concentrations of azocasein solution developed under identical conditions. An enzyme activity unit (“AZ U”) is defined as that amount of enzyme which hydrolyzes 1 μg of azocasein substrate/minute at 37° C. […] The enzymes were solubilized in a Part I composition containing 50% (w/v) L-sorbose 1% (w/v) borax (Na2B4O7.10H2O), at pH 5.79, except the acetylated trypsin composition was at pH 7.54. The compositions were stored at 45° C. for 240 hours. At various time points, enzyme activity was assayed using the azocasein method.

Row | Substance | Lysozyme, Total (lysozyme deposits) | Lysozyme, ACN/TFA Extract (lysozyme deposits) | % Cleaning Efficacy (lysozyme deposits) | Lysozyme, Hydrolysate (lysozyme deposits) | % Activity Remaining (azocasein [1]; 35° C., 24 hrs) | % Activity Remaining (azocasein [1]; 35° C., 48 hrs) | % Activity Remaining (azocasein [1]; 35° C., 72 hrs) | % Activity Remaining (azocasein [1]; 35° C., 168 hrs) | % Activity Remaining (azocasein [1]; 40° C., 24 hrs) | % Activity Remaining (azocasein [1]; 40° C., 114 hrs) | % Activity Remaining (azocasein [1]; 40° C., 168 hrs) | % Activity Remaining (azocasein [2]; 0 Hr.) | % Activity Remaining (azocasein [2]; 64 Hr.) | % Activity Remaining (azocasein [2]; 96 Hr.) | % Activity Remaining (azocasein [2]; 120 Hr.) | % Activity Remaining (azocasein [2]; 144 Hr.) | % Activity Remaining (azocasein [2]; 240 Hr.) | enzyme stability in a Part I composition over other trypsin related enzyme compositions (azocasein [2]; summary of Table 1)
1 | methyl trypsin [Me-Trypsin] | 274.35 μg/Lens | 72.90 μg/Lens | 73.4% | 201.45 μg/Lens | 97.6% | 96.4% | 91.6% | 87.3% | 88.9% | 75.2% | 67.0% | 100.0% | 89.4% | 86.3% | 84.7% | 82.2% | 76.1% | superior enzyme stability
2 | Trypsin [Native Trypsin, reference compound] | 317.40 μg/Lens | 83.92 μg/Lens | 73.6% | 233.45 μg/Lens | 69.9% | 55.9% | 48.5% | 37.6% | 42.4% | 19.4% | 17.4% | 100.0% | 62.9% | 56.8% | 53.1% | 49.1% | 41.4% | –
